Test results taken from patent publication US20140370037A1 (published 2014).

T1: human DLL3 antigen (human, UniProt Q9NYJ7 27-492, limits assumed)
T1 construct: also called immobilized human DLL3; recombinant human DLL3
T1 sequence (looked up): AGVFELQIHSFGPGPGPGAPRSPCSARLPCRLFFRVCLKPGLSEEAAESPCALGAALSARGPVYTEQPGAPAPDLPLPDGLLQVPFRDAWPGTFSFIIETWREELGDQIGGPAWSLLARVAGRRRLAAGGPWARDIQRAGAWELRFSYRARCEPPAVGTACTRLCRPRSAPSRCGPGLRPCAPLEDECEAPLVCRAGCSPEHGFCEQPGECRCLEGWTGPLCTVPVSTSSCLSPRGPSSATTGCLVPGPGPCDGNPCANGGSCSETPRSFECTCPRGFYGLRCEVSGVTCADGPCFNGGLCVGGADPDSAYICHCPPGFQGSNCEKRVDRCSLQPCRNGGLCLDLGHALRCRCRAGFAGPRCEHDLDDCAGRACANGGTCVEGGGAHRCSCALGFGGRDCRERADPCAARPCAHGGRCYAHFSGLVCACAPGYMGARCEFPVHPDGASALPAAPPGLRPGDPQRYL


Target: T1, human DLL3 antigen
Assay: ELISA or flow cytometry screen

| Binder | binding result |
| --- | --- |
| SC16.52 (antibody, V domains shown, murine mAb) VH: QVQLKESGPGLVAPSQSLSITCAVSGFSLTSFAIHWFRKPPGKGLEWLGVIWTGGTTNYNSALMSRLSISKDNSKSQVFLKMNSLQTDDTAMYYCARDDYDNNYAMDYWGQGTSVTVSS VL: DIQMIQSPSSMFASLGDRVSLSCRASQGIRGTLDWYQQKPNGTIKLLIYSTSNLNSGVPSRFSGSGSGSDYSLTISSLESEDFADYYCLQRNAYPLTFGAGTKLELK | binds |
| SC16.55 (antibody, V domains shown, murine mAb) VH: EVQLVESGGGLVQPKGSLKLSCAVSAFTFTTYAMNWVRQAPGKGLEWVARIRNKSNNYATYYADSVKDRFTISRDDSQSMLYLQMNNLKIEDTAMYYCVFYYDYVYWGQGTLVTVSA VL: DIKMTQSPSSMYASLGERVTITCKASQDINSYLNWFQQKPGKSPKTLIYRANRLVDGVPSRFSGSGSGQDYSLTISSLEYEDMGIYYCLQYDEFPYTFGGGTKLEIKR | binds |
| SC16.56 (antibody, V domains shown, murine mAb; also called anti-human/mouse DLL3 (SC16.56)) VH: QIQLVQSGPELKKPGETVKISCKASGYTFTNYGMNWVKQAPGKGLKWMAWINTYTGEPTYADDFKGRFAFSLETSASTASLQIINLKNEDTATYFCARIGDSSPSDYWGQGTTLTVSS VL: SIVMTQTPKFLLVSAGDRVTITCKASQSVSNDVVWYQQKPGQSPKLLIYYASNRYTGVPDRFAGSGYGTDFSFTISTVQAEDLAVYFCQQDYTSPWTFGGGTKLEIR | binds |
| SC16.57 (antibody, V domains shown, murine mAb) VH: EVKLVESGGDLVKPGGSLKLSCAASGFAFSSYDMSWVRQTPEKRLEWVATISSGGSYTYYPDSVKGRFTISRDNVRDTLYLQMSSLRSEDTALYYCARQAIGTYFDYWGQGTTLTVSS VL: DIVMTQSHKFMSISVGDRVSITCKASQDVSIFVAWYQQKPGQSPKLLIYSASYRYTGVPDRFTGSGSGTDFIFTISSVQAEDLAVYYCQQHYGTPFTFGSGTKLKIR | binds |
| SC16.58 (antibody, V domains shown, murine mAb) VH: DVQLVESGGGLVQPGGSRKLSCAASGFTFSSFGMHWVRQAPEKGLEWVAYISSGSSNIYYADTVKGRFTISRDNPKNTLFLQMTSLRSEDTAMYYCARGYYGNYDAMDYWGQGTSVTVSS VL: DIQMTQSPASLSSSVGETVTITCRASENIYSYLAWYQQKQGKSPQLLVYNAKTLAEGVPSRFSGSGSGTQFSLKINSLQPEDFGTYYCQHHYDSPLTFGAGTKLELR | binds |
| SC16.61 (antibody, V domains shown, murine mAb) VH: EVLLQRSGPDLVKPGASVTIPCKASGYTFTDYNMDWVKQSHGKSLEWIGNINTYNGGTIYNQKFKGKATLTVDKPSSTAYMELRSLTSEDTAVYYCARRLRYGGHYFDYWGQGTALTVSS VL: DIVMTQSTSSLAMSVGQKVTMSCKSSQSLLNSSNQKNYLAWYQQEPGQSPKLLVSFASTRESGVPDRFTGSGSGTDFTLTISGVQAEDLAVYYCQQHYSIPLTFGAGTKLELK | binds |
| SC16.62 (antibody, V domains shown, murine mAb) VH: EVMLVESGGDLVKPGGSLKLSCAASGFTFSSYAMSWVRQTPEKRLEWVAYISGGGDHIYYPDSVRGRFTISRDNAKDTLYLQMSSLRSEDTALYDCARVRDWYFDVWGAGTTVTVSS VL: DIKMTQSPSSMYASLGERVTITCKASQDINSFLSWFQRKPGKSPKTLIYRANRLVDGVPSRFTGSGSGQEFSLTISSLEYEDLGIYYCLQYDEFPYTFGGGTKLEIKR | binds |
| SC16.63 (antibody, V domains shown, murine mAb) VH: QVQLQQSGTELLRPGASVKISCKATGYTFSSYWMEWVKQRPGHGLEWIGEILPGSGTTQYNEKFKGKATFTADTSSNTAYMHLSSLTSEDSAVYYCARGTNSLWGQGTLVTVSA VL: QIVLTQSPAIMSASPGEKVTMTCSASSSVSYMYWYQQKSGTSPKRWIYDTSKLASGVPARFSGSGSGTSYSLTISSMEAEDAATYYCQQWSSNPYTFGGGTKLEIK | binds |
| SC16.65 (antibody, V domains shown, murine mAb) VH: QVTLKESGPGILQPSQTLSLTCSFSGFSLSTSGMGVGWIRQPSGKGLEWLALIWWDDVKRYNPALKSRLTISKDASSSQVFLKIASVDTADTATYYCARIASYDYDVVYAMDYWGQGTSVSVSS VL: QIVLTQSPALMSASPGEKVTMTCSVTSSVSYMYWYQQKPRSSPKPWIYLTSNLASGVPARFSGSGSGTSYSLTISSVEAEDAATYYCQQWRNNPFTFGSGTKVEIK | binds |
| SC16.7 (antibody, V domains shown, murine mAb) VH: EVQLQQSGPELVKPGASVKISCKASGYSFTGYKMHWVKQSHVKSLEWIGRINPYNGATSYNQNFKDKATLTVDKSSSTAYMDLHSLTSEDSAVYFCARGDYRYDWFAYWGQGTLVTVSA VL: NIMMTQSPSSLAVSAGEKVTMSCKSSQSVLYSSNQKNYLAWYQQKPGQSPKLLIYWASTRESGVPDRFTGSGSGTDFTLTISTVQVEDLAVYYCHQYLSSWTFGGGTKLEIK | binds |
| SC16.67 (antibody, V domains shown, murine mAb) VH: EVQLVETGGGLVQPKGSLKLSCAVSAFTFTTYAMNWVRQAPGKGLEWVARIRNKSNNYATYYADSVKDRFTISRDDSQSMLYLQMNNLKIEDTAMYYCVFYYDYVYWGQGTLVTVSA VL: QAVVTQESALTTSPGETVTLTCRSSTGAVTTSNYANWIQEKPDHLFTGLIGGTNNRAPGVPARFSGSLIGDKAALTITGAQTEDEAIYFCGLWYSNHLVFGGGTKLTVL | binds |
| SC16.72 (antibody, V domains shown, murine mAb) VH: EVQLQQSGPELVKPGASVKMSCKASGYTFTSYVMHWVKQKPGQGLEWIGYINPYNDGTKYNEKFKGKATLTSDKSSSTAYMELSSLTSEDSAVYYCARLRSRAMDYWGQGTSVTVSS VL: ENVLTQSPAIMSASLGEKVTMSCRASSSVNYMSWYQQKSDASPKLWIYYTSNLAPGVPARFSGSGSGNSYSLTISSMEGEDAATYYCQQFTSSPYTFGGGTKLEIKR | binds |
| SC16.73 (antibody, V domains shown, murine mAb) VH: QVQLQQSGAELMKPGASVKISCKANGYTFSSYWIEWLRQRPGHGLEWIGEILPGSDNSNYNEKFKGKATFTADTSSNTAYMQLSSLTSEESAVYYCTRGLRRDGSYYYVMEHWGQGTSVTVSS VL: DIQMTQSPSSLSASLGERVSLTCRASQDIGYSLNWLQQEPDGTIKRLIYATSSLDSGVPKRFSGSRSGSDYSLTISSLESEDFVDYYCLQYASSPWTFGGGTKLEIK | binds |
| SC16.78 (antibody, V domains shown, murine mAb) VH: EVKLVESGGGLVKPGGSLKLSCAASGFTFGRYVMSWVRQTPEKKLEWVASITSGGTTYYPDSVKGRFTISRDNARNILYLQMSSLRSEDTAMYYCARVYYHYDDIFAYWGQGTLVTVSA VL: DIKMTQSPSSMYASLGERVTITCKASQDINSYLSWFQQKPGRSPKTLIYRANRLVDGVPSRFSGSGSGQDYSLTISSLDYEDMGIYYCLQYDEFPFTFGSGTKLEIK | binds |
| SC16.79 (antibody, V domains shown, murine mAb) VH: EVQLQQSGPELVKPGASVKISCKTSGYTFTEYTMHWVKQSHGKSLEWIGGINPNNGGTSYNQKFKGKATLTVDKSSSTAYMELRSLTSEDSAVYYCARGPAWFAYWGQGTLVTVSA VL: DIVMSQSPSSLAVSAGEKVTMSCKSSQSLLNSRTRKNYLAWYQQKPGQSPKLLIYWASTRESGVPDRFTGSGSGTDFTLTISSVQAEDLAVYYCKQSYNLYTFGGGTKLKIKR | binds |
| SC16.80 (antibody, V domains shown, murine mAb) VH: EVQLQQSGPELVKPGGSKKISCKASGYSFTGYSMNWVKQSHGKNLEWIGLINPYSGGTIYNQKFKGKATLTVDKSSSTAYMELLSLTSEDSAVYYCARRSDYPLVYWGQGTLVTVSA VL: ETTVTQSPASLSMAIGEKVTIRCITSTDIDDDMIWYQQKPGEPPKLLISEGNTLRPGVPSRFSSSGYGTDFVFTIENMLSEDVADYYCLKRDDLPYTFGGGTQVEIKR | binds |
